This note sets out measurements from US8329186B2, “Treatment of inflammation using BST2 inhibitor” (Isu Abxis Co., Ltd, priority 2004, dated 2012).

Experiment [1] deals with HUVECs and U937 cells. Kind of experiment: Heterotypic aggregation/adhesion between IFN-γ-treated HUVECs and U937 cells. Type of experiment: cell-based, human. The protocol: HUVECs (1−5×10^4 cells/ml) were seeded onto a 12-well cell culture plate. After one day, the medium was exchanged with a low-serum medium containing 0.5% FBS, and the cells were pretreated with interferon-gamma (IFN-γ; Calbiochem) in a final concentration 10 ng/ml for 24 hrs. Then, the pretreated HUVECs were co-cultured with U937 cells (2×10^6 cells/ml, 500 μl) at 37° C. for 4 hrs. The co-culture was washed with phosphate buffer three or four times, and the remaining cells were fixed with 4% paraformaldehyde and microscopically observed.
HUVECs were transfected with an expression vector for Bst2, treated with or without IFN-γ and then transfected with Bst2 siRNA. These cells were assessed for U937 cell adhesion.
HUVECs were cultured in 12-well plates with or without transfection of Bst2 siRNA or control siRNA for 6 hr, then treated with or without IFNγ for 24 hr. In some experiments, cells were treated with crude media containing Bst2 decoy or mouse anti-human ICAM1 antibodies. After a wash with PBS (phosphate buffered saline), U937 cells were resuspended in serum free medium at 2×10^6 cells/ml. Assays were initiated by the addition of 200 ul U937 cells to HUVEC for a final volume of 1 ml. After 4 hr at 37° C., unbound U937 cells were removed by washing plates three times with PBS. Bound cells were fixed by the addition of 4% paraformaldehyde in PBS, and the bound cells were counted under microscopy in different fields. All statistical analyses were performed in Excel and statistical significance were evaluated with Student's t test. In some experiments, RNA samples were obtained from HUVECs after treatment with IFNγ and/or siRNAs, and real-time polymerase chain reaction (RT-PCR) analyses were performed.

Experiment [2] relates to interleukin-2 (IL-2). As to the kind of experiment: IL-2 expression in activated Jurkat cells (real-time RT-PCR). It counts as cell-based, human. Particulars: 3-fold increased by Jurkat cell activation. The protocol: Intracellular expression levels of specific genes were analyzed by real-time quantitative RT-PCR using ABI Prism 7900HT (Applied Biosystems, Foster City, Calif.) and a SYBR-Green assay kit. Primers and probes used were designed using Primer Express software (Applied Biosystems).
10 ng of single-stranded cDNA was placed in a reaction tube and subjected to multiplex TaqMan PCR (50 μl) using the TaqMan Universal PCR Master Mix. The relative amount of target cDNA was calculated using the comparative cycle threshold (CT) method. PCR products were analyzed by agarose gel electrophoresis.
The relative levels of a specific gene A were expressed as a change compared to a control sample (untransfected cells). […] The above experiments were carried out to quantify the expression of the Bst2 gene and interleukin-2.
When Jurkat cells (5×10^5 cells/ml) were incubated with anti-CD3 monoclonal antibody (OKT3: 10 μg/ml, BD Pharmingen) at 4° C. for 20 min and then with anti-mouse immunoglobulin polyclonal antibody (25 μg/ml, Zymed) 37° C. for 1 hr, cell aggregation occurred, and the cells were activated and induced to produce interleukin-2 (IL-2) (FIGS. 10 and 11). […] IL-2 mRNA levels upon T cell activation were measured by real-time RT-PCR (Example 3). […]
(Real-time PCR tracks product formation cycle by cycle.)

For experiment [3], the system named is CLP sepsis. As to the kind of experiment: Cecal ligation and puncture (CLP) sepsis model: survival. Type of experiment: in vivo, rat. The source says:
A rat model of sepsis was induced through cecal ligation and puncture (CLP) as described previously (Wichterman K A, Baue A E, Chaudry I H: Sepsis and septic shock-a review of laboratory models and a proposal. J Surg Res 29:189-201, 1980). An incision was made along the midline of the abdomen on an anesthetized animal. The cecum was exteriorized, ligated and punctured with a stainless steel needle. An appropriate amount of fecal matter was then extruded. The gauge of the needle, number of punctures and amount of fecal matter extruded are all factors in determining the severity of sepsis and mortality. […] The incision was sutured and appropriate post-operative care was administered. Sham-operated animals were subjected to similar laparotomy and intestinal manipulation, however, the cecum was neither ligated nor punctured. Immediately or 6 hours after the CLP procedure, animals were given intravenous injection of vehicle or a Bst2 decoy.
Mortality of animals was monitored for up to 14 days after the procedure. […] 3, 10, and 30 mg/kg doses were administered immediately following the CLP procedure and daily survival monitored over the course of 14 days.

The subject of experiment [4] is mouse model of asthma. As to the kind of experiment: Ovalbumin-induced mouse model of asthma: infiltrating cells in bronchoalveolar lavage. Type of experiment: in vivo. Particulars: ovalbumin-sensitized mice. The protocol:
A mouse model of asthma was prepared by sensitizing mice (C57B6, 8 weeks) with ovalbumin. In detail, mice were initially sensitized for five continuous days by intranasal injection of ovalbumin. After three weeks, mice were intranasally sensitized again with ovalbumin for five continuous days. One week after the secondary sensitization, mice were challenged intranasally with ovalbumin three times every 24 hrs to induce asthma. Herein, a Bst2 decoy was intravenously injected into mice 30 min before sensitization with ovalbumin, and was injected into mice 30 min before the first sensitization and the last injection of ovalbumin. Three days after the last injection, serum samples, lung tissues, and the like were collected from mice.
A mouse model of asthma was prepared as described in Example 8-1.
The effect of Bst2 decoy-Fc fusions on immune cell infiltration was assessed as described in Example 8-2. When ovalbumin-sensitized mice were treated with a Bst2 decoy, the total number of infiltrating cells was decreased and, especially, the number of neutrophils, eosinophils and lymphocytes except for macrophage was decreased in bronchoalveolar lavage (BAL) (FIG. 27).
A mouse model of asthma was prepared as described in Example 8-1. The effect of anti-Bst2/Damp1 antibodies on immune cell infiltration was assessed as described in Example 8-2. […]

“Also recorded” adds a separate entry of the source.

B1: Bst2 decoy: soluble Bst2 protein fragment having the amino acid sequence of SEQ ID NO:1; extracellular region of human Bst2, six-histidine tag (protein)
chain: NSEACRDGLRAVMECRNVTHLLQQELTEAQKGFQDVEAQAATCNHTVMALMASLDAEKAQGQKKVEELEGEITTLNHKLQDASAEVERLRRENQVLSVRIADKKYYPSSQDHHHHHH
Regarding B1, the “binding of U937 cells to IFNγ-treated HUVECs” value in experiment [1] (Bst2 decoy-containing medium, IFN-γ 10 ng/ml 24 hrs, co-culture 4 hrs) was “decreased binding”. In addition, the “dose dependence of effect in heterotypic cell aggregation/adhesion assay” value in experiment [1] (IFNγ-treated HUVECs and U937 cells) is “dependent on concentrations; also recorded: dose-dependent response”. Moreover, the “expression of IL-2” value in experiment [2] was “decreased again to the basal level”. The “14 day survival rate” value turned out to be 37.5% in experiment [3] (3 mg/kg intravenous immediately following CLP), 80% in experiment [3] (10 mg/kg intravenous immediately following CLP) and 75% in experiment [3] (30 mg/kg intravenous immediately following CLP). Besides, the 14-day survival rate in experiment [3] (administration 6 hours post-CLP) amounted to 70%. Further, the “number of infiltrating cells in bronchoalveolar lavage (total, neutrophils, eosinophils, lymphocytes)” value in experiment [4] is recorded as “remarkably decreased”.
